Assay [1] has as its target T1, MUC1 on MUC1+ human cancer cell lines and tumor tissue (abnormal, e.g. hypoglycosylated, tumor MUC1) (human, UniProt P15941 24-1255).
T1 construct: the MUC1 of each cell line or tissue (number of repeats, glycoform) is not specified; The cell line or tissue is named under assay; also called MUC1 on HPAF, MCF-7, BT-20, SKBR-3, PANC-1, MS+MUC1 cells; MUC1 on colon and pancreatic tumor samples
The experiment in a line: flow cytometry, BT20 cells. The procedure:
(§1) The antibodies were further characterized for their surface binding to MUC1-expressing human cancer cell lines HPAF (pancreatic), MCF-7 (breast), BT-20 (breast), PANC-1 (pancreatic), and MS (breast) cell lines that express very low levels of MUC1 and was transfected with MUC1 cDNA (MS+MUC1). MCF-10A, a human nontransformed mammary epithelial cell line that expresses normal MUC1, was used as a predicted negative control for tumor MUC1 (hypoglycosylated MUC1)-specific staining Cells were grown attached to tissue culture plates, trypsinized, washed with PBS and 1% FBS and stained with each antibody for 30 minutes on ice. Cells were then washed 2 times with PBS and 1% FBS and stained with appropriate allophycocyanin (APC)-labeled secondary antibodies. Cells were washed again 2 times with PBS and 1% FBS and then analyzed by flow cytometry. Thirty-thousand events were collected for each sample and gated for viability by forward and side scatter. Live cells were then gated for APC+ staining as compared to an appropriate secondary antibody only control.
For orientation: In flow cytometry, cells or beads pass a laser one at a time.

Assay [2] concerns the target T1, MUC1 on MUC1+ human cancer cell lines …. The experiment in a line: flow cytometry, SKBR-3 cells. On the procedure: as §1
Assay [3] shares this target. Briefly: flow cytometry, HPAF cells. On the procedure: as §1
The target is the same in assay [4]. The experiment in a line: flow cytometry, PANC-1 cells. On the procedure:
as §1

Assay [5] has the same target. The experiment in a line: flow cytometry, MS+MUC1 cells. The procedure:
as §1

Assay [6] shares this target. Briefly: flow cytometry, MCF-7 cells. The procedure:
as §1

For assay [7] the target is unchanged. Briefly: immunohistochemistry, colon tissue microarray, benign samples. The procedure: (§2) Secondary antibodies alone were used as negative controls. Following staining, the microarrays were analyzed using CELLPROFILER cell image analysis software (Broad Institute).
For assay [8] the target is unchanged. The experiment in a line: immunohistochemistry, colon tissue microarray, malignant samples. The procedure:
as §2

B1: M3 (antibody, human IgG1, lambda, V domains shown)
VH: QLQLQESGPGLVKPSETLSLTCTVSGGSISSSSYYWGWIRQPPGKGLEWIGSIYYSGSTHYNPSLKSRVTISVDTSKNQFSLKLRSVTAADTAVYYCARGVVEVRGNHYYYYYMDVWGKGTTVTVSS
VL: QSVLTQPPSVSGAPGQRVTISCTGSSSNIGAGYDVHWYQQLPGTAPKLLIYGNSYRPSGVPDRFSGSKSGTSASLAITGLQAEDEADYYCQSYDSSLSGSGVFGGGTKLTVLG
notes: Human IgG
On to B1, for which the “percentage of APC+ stained cells” value in assay [1] was 14.8%; in assay [2], 5.71%; in assay [3], 42.1%; in assay [4], 1.55%; in assay [5] it was 22%; in assay [6] it was 79.6%.

B2: M22 (antibody, human IgG1, kappa, V domains shown)
VH: EVQLVESGGGLVQPGGSLRLSCAASGFTVSSNYMSWVRQAPGKGLEWVSVIYSGGTTYYADSVKGRFTISRHNSKNTLYLQMNSLRAEDTAVYYCARDHDPDYGGYYMDVWGKGTTVTVSS
VL: DVVMTQSPLSLPVTLGQPASISCRSSQSLVYSDGNTYLNWFQQRPGQSPRRLIYQVSNRDSGVPDRFSGSGSGTDFTLKIGRVEAEDVGVYFCMQGTHWPWTFGQGTKVEIKR
notes: Human IgG
B2: the “percentage of APC+ stained cells” value in assay [1] worked out at 3.39%; in assay [2] it was 1.34%; in assay [3], 2.99%; in assay [4], 0.7%; in assay [5] it was 5.78%; in assay [6] it was 5.68%.

B3: M20 (antibody, human IgG1, kappa, V domains shown)
VH: EVQLVESGGGLVQPGGSLRLSCAASGFTFSSYWMHWVRQAPGKGLVWVSHINSDGSSTSYADSVKGRFTISRDNAKNTLYLQMNSLRAEDTAVYYCARELADWGQGTLVTVSS
VL: DVVMTQSPLSLPVTLGQPASISCRSSQSLVYSDGNTYLNWFQQRPGQSPRRLIYQVSNRDSGVPDRFSGSGSGTDFTLKIGRVEAEDVGVYFCMQGTHWPWTFGQGTKVEIKR
notes: Human IgG
In the case of B3, the “percentage of APC+ stained cells” value came to 9.86% in assay [1]; 1.91% in assay [2]; 4.36% in assay [3]; 0.39% in assay [4]; 6.32% in assay [5]; 29.2% in assay [6].

B4: M21 (antibody, human IgG1, kappa, V domains shown)
VH: EVQLVESGGGLVQPGGSLRLSCAASGFTVSSNYMSWVRQAPGKGLEWVSVIYSGGSTYYADSVKGRFTISRDNSKNTLYLQMNSLRAEDTAVYYCARDQEHYFDGSGYYVDYWGQGTLVTVSS
VL: DVVMTQSPLSLPVTLGQPASISCRSSQSLVYSDGNTYLNWFQQRPGQSPRRLIYQVSNRDSGVPDRFSGSGSGTDFTLKIGRVEAEDVGVYFCMQGTHWPWTFGQGTKVEIKR
notes: Human IgG
For B4, the “percentage of APC+ stained cells” value amounted to 4.06% in assay [1]; 0.99% in assay [2]; 2.6% in assay [3]; 0.75% in assay [4]; 4.41% in assay [5]; 5% in assay [6].

B5: M7 (antibody, human IgG1, kappa, V domains shown)
VH: EVQLVESGGGLVQPGGSLRLSCAASGFTVSSNYMSWVRQAPGKGLEWVSVIYSGGSTYYADSVKGRFTISRDNSKNTLYLQMNSLRAEDTAVYYCARGSTNTYYYDSSGHPWGQGTMVTVSS
VL: DIVMTQSPLSLPATPGEPASISCRSSQSLLHSNGYTYLDWYLQKPGQSPQVLIYLASNRASGVPDRFSGSGSGTNFTLKISRVEAEDVGLFYCMQALQTPQTFGQGTKLEIKR
notes: Human IgG
For the molecule B5, the “percentage of APC+ stained cells” value came out at 12.2% in assay [1]; 1.65% in assay [2]; 51.5% in assay [3]; 0.41% in assay [4]; 22.4% in assay [5]; 83.5% in assay [6].

B6: M14 (antibody, human IgG1, kappa, V domains shown)
VH: QVQLVESGGGLVKPGGSLRLSCAASGFTFSDYYMSWIRQAPGKGLEWVSYISSSGTTKYYADSVKGRFTISRDNAKNSLYLQMNSLRAEDTAVYYCVRENLGYCSGGSCFYYYYMDVWGKGTTVTVSS
VL: not shown
Take B6: the “MUC1+ samples stained” value in assay [7] is 2 of 3 MUC1+ benign samples; in assay [8], 56 of 114 MUC1+ malignant samples. The “percentage of APC+ stained cells” value in assay [1] worked out at 22.9%; in assay [2], 22.3%; in assay [3] it was 6.81%; in assay [4], 55.2%; in assay [5] it was 28.4%; in assay [6], 20.8%.

B7: M16 (antibody, human IgG1, kappa, V domains shown)
VH: QVQLVESGGGLVKPGGSLRLSCAASGFTFSDYYMSWIRQAPGKGLEWVSYISSSGTTKYYADSVKGRFTISRDNAKNSLYLQMNSLRAEDTAVYYCVRENLGYCSGGSCFYYYYMDVWGKGTTVTVSS
VL: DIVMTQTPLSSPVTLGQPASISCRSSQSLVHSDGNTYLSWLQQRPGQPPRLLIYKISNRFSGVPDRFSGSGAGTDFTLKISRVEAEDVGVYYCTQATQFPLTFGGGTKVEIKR
notes: Human IgG
With B7, the “percentage of APC+ stained cells” value in assay [1] stood at 5.17%; in assay [2], 2.68%; in assay [3], 5.93%; in assay [4] it was 0.76%; in assay [5], 7.03%; in assay [6], 18.3%.

B8: M23 (antibody, human IgG1, kappa, V domains shown)
VH: QVQLVESGGGLVKPGGSLRLSCAASGFTFSDYYMSWIRQAPGKGLEWVSYISSSGTTKYYADSVKGRFTISRDNAKNSLYLQMNSLRAEDTAVYYCVRENIGYCTGGNCFYYYYMDVWGKGTTVTVSS
VL: not shown
As for B8, the “MUC1+ samples stained” value in assay [7] was 2 of 3 MUC1+ benign samples; in assay [8], 76 of 114 MUC1+ malignant samples. Also, the “percentage of APC+ stained cells” value in assay [1] is 23%; in assay [2] it was 18.6%; in assay [3], 5.71%; in assay [4], 45.1%; in assay [5], 33.8%; in assay [6], 16.1%.

Values taken from patent publication US20160145343A1 (UNIVERSITY OF PITTSBURGH OF THE COMMONWEALTH SYSTEM OF …, published 2016).
